Drawing on US20040053425A1, this text covers decrease in PSA enzymatic activity for 1 substance.

For the assay, the target named is human prostate-specific antigen (PSA) (human) (UniProt P07288). Description: cell-based or functional assay.
Sequence of UniProt P07288 (P07288 25-261 limits assumed): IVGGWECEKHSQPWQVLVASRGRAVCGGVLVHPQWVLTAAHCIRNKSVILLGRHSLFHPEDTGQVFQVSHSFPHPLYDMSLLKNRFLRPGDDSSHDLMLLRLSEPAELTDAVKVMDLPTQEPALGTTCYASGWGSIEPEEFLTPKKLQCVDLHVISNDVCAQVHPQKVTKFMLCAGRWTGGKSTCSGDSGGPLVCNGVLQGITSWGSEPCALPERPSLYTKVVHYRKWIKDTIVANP

Regarding “anti-PSA monoclonal antibody clone ER-PR8”, the decrease in PSA enzymatic activity stood at 46%.
